The results in this text go back to PMC9158661.

One may read the stoichiometry N as the number of molecules, sites or subunits per partner or assembly.

The target of the assay is extracellular Cu/Zn superoxide dismutase from Onchocerca volvulus (OvEC-SOD) (Onchocerca volvulus). Kind of assay: SAXS; monodisperse solutions after affinity-tag cleavage, four concentrations 0.5-7.5 mg/ml; molecular mass from forward scattering with bovine serum albumin as reference; compared with the crystallographic dimer (CRYSOL, SREFLEX, GASBOR).

Take “extracellular Cu/Zn superoxide dismutase from Onchocerca volvulus (OvEC-SOD) (enzyme)”: the stoichiometry N came out at 2.
